Assay results published in US20220380473A1, “ANTI-GAL3 ANTIBODIES AND USES THEREOF” (TrueBinding, Inc., priority 2019, published 2022).
Entries after “also recorded” stand apart in the source; their conditions may differ.

What was measured:
[1] = tested on: hGal3 peptide; test: Gal3 peptide library ELISA (Example 25); assay type: binding, human; settings: peptide array ELISA
Description: To identify the epitopes to which Gal3 antibodies with and without Gal3-TIM3 blocking activity bound, a library of 20 amino acid peptides representing portions of Gal3, summarized in Table 24.1, was produced and the ability to bind Gal3 antibodies was evaluated by ELISA.
At least 2 μg/ml of hGal3 peptide in 50 μl of PBS or 0.1 μg/ml of full-length human Gal3 protein (GenScript) and human Galectin-3 protein (Acro Biosystems, GA3-H5129) were diluted in PBS (Corning, 21-030-CM) to concentrations of at least 2 μg/ml or 0.1 μg/ml, respectively, and added to the wells of a 96-well ELISA plate (Thermo Fisher, 44-2404-21). After incubating the plate at 4° C. overnight, the plate was washed three times with PBST (PBS with 0.05% Tween 20 [VWR, 0777]). The plate was then blocked for an hour with 2% BSA (EMD Millipore, 126609) in PBST at room temperature with gentle rocking. Thereafter, the 2% BSA in PBST was discarded and human Galectin-3 hybridoma supernatants or antibodies were diluted in 2% BSA in PBST to concentrations of at least 0.1 μg/ml and added to the wells. The plate was incubated for an hour at room temperature with gentle rocking and then washed three times with PBST. Afterwards, Goat Anti-Mouse IgG-HRP (Jackson ImmunoResearch, 115-036-1461) or Goat Anti-Rat IgG HRP (abcam, ab205720) diluted in 2% BSA in PBST (1:4000) were added to the wells. The plate was incubated for 30 minutes to 1 hour at room temperature with gentle rocking and then washed three times with PB ST. TMB substrate (Thermo Scientific, 34029) was then added to each well. The reaction was stopped with 1M HCl (JT Baker, 5620-02) and read using a plate reader (Molecular Devices) at absorbance of 450 nm.

[2] = tested on: human Gal3 protein; test: Epitope binding of IMT001, hGal3 peptide array dot blot and peptide ELISA; settings: dot blot, 1 ug/ml antibody
Description: A peptide array containing 24 20 amino acid peptides overlapping by 10 amino acid and covering the whole human Gal3 protein sequence was synthesized (Genscript, Piscataway, N.J.) (FIG. 11A). 20 μg of each peptide was dot blotted onto a membrane. After blocking with 5% milk in PBS, the membrane was incubated with 1 ug/ml IMT001 antibody at 4C for overnight. After three times of washes, the membrane was incubated with 1:8000 diluted anti mIgG HRP antibody (Southern Biotech, Birmingham, Ala.) for one hour. After three times of washes, the membrane was incubated with Western ECL blotting substrates (Bio-Rad, Hercules, Calif.) and developed (FIG. 11B).
To further define binding epitope of IMT001 on the above peptide, 8 shorter peptides derived from it were synthesized (Genscript, Piscataway, N.J.) (FIG. 11C) and their binding by IMT001 was determined by ELISA (FIG. 11D). 96 well Elisa plate (Thermo Scientific) was coated with these peptides in PBS buffer and incubated at 4° C. for overnight. The plate was washed three times with TBST and then blocked with PBST buffer containing 2% BSA at room temperature for 1 h. IMT001 at 10 μg/mL was incubated in the coated Elisa plate at room temperature for 1 h. […] The optical density (OD) was read at 450 nm. The results were expressed as the average OD of duplicates±SD.

[3] = tested on: STAM HFD-CDAA mouse model of liver fibrosis; test: STAM CDAA-HFD mouse model of liver fibrosis; assay type: in vivo
Description: To confirm that the observed reduction of liver fibrosis in the MCD mouse model was not unique to this setting, the activity of mIMT001 was explored in the STAM HFD-CDAA mouse model of liver fibrosis. Briefly, Two-day-old male C57Bl/6 mice were injected by a single subcutaneous injection of 200 ug of streptozotocin to cause islet destruction and then fed CDAA-high fat diet (Research Diet #A06071302) starting at 4 weeks of age and continuing for the entire duration of each study. At 8 weeks of age, mice were divided into two groups (seven mice each) based on ALT score. Mice were treated human anti-mIgG4 isotype control (hIgG4, 10 mg/kg) or human anti-Gal3 antibody (IMT001-4, 10 mg/kg) twice a week by intraperitoneal injection for 4 weeks. All animal care and procedures were approved by the Immutics IACUC.

[4] = tested on: α-smooth muscle actin (SMA) and fibronectin; test: UUO mouse kidney fibrosis, western blot of fibrosis markers (Example 19); assay type: in vivo; settings: 10 mg/kg i.p., 14 day treatment, vs IgG2b control
Description: Unilateral […] obstruction (UUO) mouse model was created with 8-week old male C57BL/6 mice. The animals were randomly assigned into three groups (n=5); sham, mouse IgG2b control, and IMT001. […] On day 0, surgery was performed to ligate the left ureter in each animal. Following the surgery, the animals were administrated intraperitoneally either 10 mg/kg of mIgG2b (BioXCell) or IMT001 on day 1, 5 and 10. The animals in the sham group were left untreated. On day 4, 8 and 15 the animals were humanely sacrificed and left kidney tissues were surgically removed and snap frozen for western blot analysis.
30 mg snap frozen kidney tissue from 14 day treatment UUO group was homogenized in 500 μl of RIPA buffer (Thermo Scientific). The homogenate was left on ice for 10 minutes and then centrifuged at 12000 rpm for 10 min at 4° C. in 1.5 mL Eppendorf tubes. The supernatant containing protein was collected and was quantified by A280 absorbance with a Nanodrop (ThermoFisher). Protein samples were boiled in 4× sample Buffer containing β-mercaptoethanol (Bio-Rad) for 10 min. […] The membranes were washed three times with PBST and protein bands were detected by enhanced chemiluminescence using standard ECL detection methods as recommended by the manufacturer (Bio-Rad) and developed. […]

B1: IMT001: anti-Gal3 monoclonal antibody (Immutics); printed as mIMT001 (IMT001), murine (antibody, V domains shown)
VH: QIQLVQSGPELKKPGETVKISCKASGYTFTNYGMNWVKQAPGKGLKWMGWINTNTGEPTYVEEFKGRFAFSLETSASTAYLQINNLKNEDTATYFCAPYDNFFAYWGQGTLVTVSA
VL: DIVITQDELSNPVTSGESVSISCRSSKSLLYKDGKTYLNWFLQRPGQSPQLLIYLMSTHASGVSDRFSGSGSGTDFTLEISRVKAEDVGVYYCQQLVDYPLTFGAGTKLELK
Gal3 peptide bound [1]: peptide 6
epitope on hGal3, 20 amino acid peptide array [2]: Peptides 5 and 6; also recorded: peptide_5
% area picosirius red staining ([3]; liver, 10 mg/kg twice a week i.p. for 4 weeks): 1.66%
reduction of picosirius red staining ([3]; vs isotype control): 67%
expression of fibrotic markers a-SMA and fibronectin in kidney [4]: reduced expression of both fibrotic markers
